Measurements reported in the DeepSol protein solubility set.

Test: soluble on expression in E. coli; label from the status in PepcDB or PDB records

Row | Sequence | soluble on expression in E. coli
1 | MAHAAAVEENQLQSLKDVAKQAPVHRKLDIQEWKTAEGAKVLFVEAHELPMFDLRLTFAAGSSQDAGTPGLSMLTNAMLNEGVPGKDTTAIAAGFEDLGASFSNGSYRDMAVAGLRSLSEADKRTQALKLFEQVIGQPTFPEDALARIKNQVLAGFEYQKQNPGKLAGLELFKRLYGEHPYAHSSDGDEKSVPTISREQLQAFHKKAYAAGNVVIALVGDLSRQEAEAIAAEVSKALPQGPALAKTVQPETPKPGLTHIDFPSEQTHLMLAQLGIDRQDPDYAALYLGNQILGGGGFGTRLMDQVREKRGLTYGIYSGFTAMQARGPFMINFQTRAELSEGALKLVQDIVRDYLANGPTQKELDDAKRELAGSFPLSTASNADIVGQLGAIGFYGLPLDYLESFLKQVEGLSVEQVRTAMAKHLDADAFVIVSAGPSVPQKLEHHHHHH | not soluble
2 | MAHHHHHHMAAFKPYRFIIFDQQIKNNQFYKSIITQLNLSLLCKEIYLNESFSCYQYEKLFLKKLVYYSFNNLGNNLKAREIKCSGHSSVDTGEHKLQQLINNVNKNENKNININKNINKNINKNVNINNADHNKCSDNSSDYHNFYENECMNNLNLINDLGDRHKNHPLYNVMMKNKKKELTTQSDINKLVSFHIYDNKNEKTFKNILSLNDTYNIDHMNILCLNNYKPIFNMLENYSINNKRISIYYPFYIINDDKNNKPQSNLYTKVADYCYNIVSDILPLNYKNINLSDIIKAIIINTELCQNEGNERMEVLKFMDIMDIIGKN | soluble
3 | MAHHHHHHMAANGCFIAALIARTHDRLPLCSYTDDNYSNANVIRQQEQRIVERMESPAGGTDRAAAKGSYYESFDHKDNVYFAFQDAATDLTLVVAVNKLLLRNSGDINGMNKLACGLLDLIFSEFIQMYTPAEIGAPNVRAYQFIKFDATLRKCVTRIMQQDRTTGDRIV | not soluble
4 | MAHHHHHHMADSYENDEDVLQMIQQIKKITKESKRKFENEIDYLVEDTKTNLLTHVDDEKNCIKKEAEEKLNSYRENLIKYEKGINEKRRHYLKLKAELATVVNNYKKRMKVGPACTCVERFTCACGEVYTRVEVYTLVKLHTLVKPPTRLLSPQDFNQETENFKQTYEREKKELEDLEDREWSELNTHCVELLSKTKSNICATKNETNKKLRKVLNSIM | not soluble
5 | MAHHHHHHMADTHFFAEANVLDDPRETTNAYKEIKYDLLRIERSINTEVRKRIEANKNIQQLIEHTANDMINKVLNKITTKIENISFELDKIIKKCDELEKMVGQIRLTLPTKIQTEMMGLKREVSDFFILLNKYANNRKKRNNVLFSKMENMNAYVSNKIHSEVSFTEDDFLFFRRESAKLLASDSDDEQGFRDAFLQEVEEIRDALALTVKAREQSDDDIIQVGAVRCGGAVQRCDVMRWDETRWAYFR | not soluble
6 | MAHHHHHHMADYGWTRGKLPKFRARSPFHRQQIARRMVTEMIRKDYCIVGGARAPALRILADHVVELAKAGDTDSRQQLAYFLHDPLMVDKAFDEYPRRFKDMNAKYAMMTRLKSRRRTDAVAMYFVEYKNRDMSDNHKGEDYSAGPERFFLPPRIVETEKGIQRPPHMQMAFDRWASKFKTEEFHHWWRLRHAKLRYWGVRNVPHPSDVDPLWTEKEEEEWHNEMLANTGEYEDLDLDDESYTAAGEGGEPSPAGDGPQPQRVG | not soluble
7 | MAHHHHHHMAEQFTEDIGVVNKRLLEPVPFVKTNNCIKDVDADLFIRSYATHLKLHNKITYPKWCTFVKTGKGRKLAPLNEDWYFIRASSILRRLYLHPDIGVGFLRRQFSSKQRRGVAPNHTSLASGKILRSILQQLENLGYVEQNPKKKGRRLTTKGENAINNFARYINKKVYNKE | not soluble
8 | MAHHHHHHMAHGSFDAVRKEMETQEKIIATLQRDNESLLREKKEILSRCKQLEHDFEHLEAKHSLLLSAQQDFAVRSNMHTANDSAKIVNLQAQVEELQTNLETEKRRCALLLQERNDLAQSKSDTPSLVGSAEITNVAVVREQQGRSEDIVAKLRESQRIHSIQKSTIDALHSEVTRLESERKVSHSRESNLLREVDSLRTQVRDLESALQQKKGGIRELMSSCQAGSANAQRLKKQETRIRLLEKALLEKDEFTKRAMEELRAEAKKVCERYQSTVAELRQRLEVPKDDPELQKRISTLERENLDLRRALGGASVSLAVESAQPVQKLATEPKHHTDVTDKADKPGGQALKAPGSHELEITHLHSVIERLRAEICEHKQRNITLQSKLDSIHAEWDARLAEMKTNFALQIQTLRSAHNEELSRLEASHQTQLLEISKCSKADRGDSLASRLSRIVEEKGYDASLIAIGERLCFLEKRYCQKEEEKTHELLEMKRVAELEMKIQKEKTDLLLEQKNTQIKRFQVQLDELLAALSILQATS | not soluble
9 | MAHHHHHHMAPQSPSEWDNARRAAKRALTISDEYPPATVERIQKLLQRAETTSNDAVLLSELKSLVQSYFQSPQSLQFLRKERVASKGGGIGVVAARKIPAFSIIGVYPGYLDFMSGEQAKCGRPVPKYALMEYNCANYFNEVFVELQTTFTPFINEPNVDEKSNCAWIQEPHRKNGRLSVICVRDIQEGEELTIGYGPIYPRTYPYCYDAYACHQIEGHTTHPCYSLWHWPTLQEADARFVCHIGYIERDDCYVLWKNET | not soluble
10 | MAHHHHHHMARRPSRCYRFCKNKPYPKSRFCRGVPDPKIRNFDIGRRRATVDEFPVCIHVVSRELEQIASEALEAARIQANKYMVKRANKDVFHMRTRAHPFHVLRINKMLSCAGADRLQTGMRGAFGKPNGVCARVRIGQILLSMRTKEAYVPQAFEALRRAKMKFPGRQIIVMSKYWGFTNILRTEYEALRDAGKLEQRGTHCKLIAPKGKITMRNVMA | not soluble
11 | MAHHHHHHMAYGDDSKIVEGIVGERNIYKRREESTETNPFQSKHKKRLLFVLDVSASMYRFEGMDHRLSKLLESTVMVMEAFAGFEEKIDYAMVGHNGDSACIELVSFGHSPANQKARMEVCQRMVAHAQYCWSGDNTVEAMRQSIDLVTAEKGDAYLVFVISDANLPRYGIQPSELSAIMRSHKEVQMFCIFIATLGEQASNLQAEMPPGHGFECLDTQALPHILKQIFFSVNLL | not soluble
12 | MAHHHHHHMCLDWKYNYMKTRLKVLENNEKDEEIERKLQNNLNIKSLGYVLKAIEILKRKEKMKRYSTFDRHLSYFKKNNINKPQYNEKKILEHRLWAIGCELIEVIGDGNCLFRSISRNLFHKQKYHMYVRKKCVEYMINYKEEYSIYFENNEFQQYIKNMSKNGYWGDELCIKATADAFDCIIYIITSTLENWHLKYESKNNNGMYKKCVFLAYSSPTHYDCFKLMQR | not soluble
13 | MAHHHHHHMDAAIAQLRGCLEELLTYYPHVLRNVFEVEPSPLAAPKLSQQRPRDSSALADVIEDFLTELTRVLSIGLCDDDLGLWSVLELLECVPARMQAVAEATATAPETAALSKHGAQEPLQQLQRFRFASQLVYLVRSAFPATAPAVRARIFLRLTLNQGCLVAALELLREWCRSELLVFYAASDRGRRNGAAGSASSVALLVQSDTDSDMWNSFVAAIAPVAGPPVAEIAAGAPKVAAQPFHLQLLVPGLDDNSAASHAYYTQVENYACGRQPTRPSALACYRAALRQHSGSARKHDRSFRAASAGEGAASSPKLSPHPAEQLVLRVESLSVDHRTASGKEVAPVSRGNVSYDSSSTLSSRPMTLEPLSFVHRERLRGAKKRRRRHPSLSTAGAVAREEDAAGSPTPEGKTDNTTSDNTGSVAEAALHTSTVVTEAKECQGAPEAGEKAAPPYRDDYASRDDDPQVAPTVGETGAAQAASRALDTVSTDSPASAPHCLSPALRAAESPNRTLDSSSAPALSPELRNLQHRLWLCWLAVVTHAESEERIRITVRDVDANIS | not soluble
14 | MAHHHHHHMDDYHDDDVHSNYGYEDDEYDDAADDWEAEAAEEEQRAVAEEAARQARLEKKLATRAPVKKEEEEEAVPEDVERAMADMRQVANDIASGSALLSGGDSEELIGNHKLASDADVERVGTMIADRLTSFSDSGHYDKLIVEVFQRLTNHLTSTHLLNEEADRVHRLREELKRAAKAKLKPVEKAPVTQSGLDLDNFEDRGGAAVADNEDETGW | soluble
15 | MAHHHHHHMDTTTLKEADMNQMIIQLMEREKKKKKKKNIYEQKKMEPQNYSHMKKFKISPKEEKSLNKEEIKSHLINFFQEQEKIYKDEELNTKNYIIDETKKKEKEVYLNGYYIYCQDFKNEYNNYFNSFIKESEDIKKDLKDLQIQYMDDKILLGNKRKMELDNMLHFYKEKLLDIKNHWDTKNFCDDNLKNIVYDILNVIN | not soluble
16 | MAHHHHHHMEANGTLVECKRGESDAVVFRFLIIDAPSPSSVPAYMKLLQRHNVMHIVRACGPTYNAEVFEKQGIVVHGWSFDDGASPTQTVIDNWLNLLEQEKNKSPPETIAVHCVSGLGRAPILVALALVEYGGMPPLDAVGYVRGRRKGAINQVQLNWLMRYKPRHQESNEGSLICARCTLM | soluble
17 | MAHHHHHHMEDGEALDLQDALKPEVKERPVRLIKIERHDGTKAFLNSVIEMAQVVLDNMPPDACYKDIAIKLKTKLDEVEKGTWHVIVGSHFGANVTNDSETLVNFKIDEMHILLFRSGPPERPMSLNDEGS | soluble
18 | MAHHHHHHMEEESHALKDPWFVSYIPQLTTEIVKNNYEGDWNLAKEALQQPLDYVRTVEEFWSTLNSLPKLHQLESSSTFVFARNNVDASYEAFPNGTRIIVDIRKAAMAEKATAVILSSVIGESVSQEVCGGKPICDVLRLSSRPNKESPELVRLEVWLSDQTYGKAVLAYVRKALNDVGMSQPHVIFGESLFEKEKKKKGK | soluble
19 | MAHHHHHHMEHLSVTKNSQMNNLAAYNNQEANYSLAAPNQEEYSENDLFYTFYDKFNEIFLFIQNLKENKNDLEDEVDDNLIKTLHNLCLEFLNYIKQINDFGHMNLSKNDQDLIIESYEKFVRQCKQYNDKPQVKQLENEISNLLDLLFNNTSGRHNSWRSGKKRKKREKEKKKLISPP | soluble
20 | MAHHHHHHMELCLYNSKNGYLEALLRGFRSSFLTPEEYKKLTEVDTLEDLKSVLEDTDYGSFMMDEPSPIAVTTIAQKCKEKMAHEFNYIRAQAEEPLRTFLDYIAKEKMIDNVIILIHGTLNKKPAEELLSRVDPLGYFPQMKAITTMDVQNSHDDVLKVLLIETPIGTYFDKYISANASNEKNNVTTILNEMDIEILRNTLKKAWLEDFYDFIRELGGKTEEVMGHILKSVADFRVLSVTLNTINSSLSLELQKDRNDMFPCFGYLYPEGTDRIRKCWNNETVQAALENYPTYYNLYEECKQFYMKNENMQDSKIVDHKVKSLEDLLYVKLVKLCETAFDQHCHFGIFYAWVKLKEQEIRNIVWISDMILMNRKDCIDSIIPIFEPQI | not soluble
21 | MAHHHHHHMELYQDNKINNVGNIEINQCDGVIKKENDLHVSVIKPITKKIIHCDNMENKMKINAFYKPVELVEEIKNYVHKGDTHLVKLYEDFKNKKDKKVKMKNEYMTKLKNLHILNMINNKKKENECGVVNKNNIVHFNLFNENEDVTPKIETVYIPKLEKNIEVVSHLKENVNVDYTYMVPKPVVIPIEVPILKFRDHFKIIPIRKKIIPVIKYTDNIIYVDCCVEKPYIVYENVIIPVPCDIPIEQKKYIDKVPPI | not soluble
22 | MAHHHHHHMENNNHGCNMHDDNFDLLMKKICNELKKGDKNKNGLIMYNTFIDVLDLFQIEYGSSIIDYLMKHCVVTEDGFVNYKNLWLIHDPSKTMRNNSESVEESINPKFMDIQDRYEDIDKYTQEKNEIIRKLYSQWDKCLLRDDEFKAKLINGNIDITPEFERSLYLYGPSRSLSFANVMKTLYINDSKNRKNRNNFVSKIKDEKWRKLNIDENEQQCFQDIHRNPIAWEGSNVTDADNLIQNVELISNYLRGEENVNMRKEEFISHDFFNNTVKNLIKNYISNKISESEFYLCLNKLNISVTPQLNNLIKCHELDSNGKFKDFATTINRCIPKNLLHSLQRRVQLYGAQKNDKDSKLNFSYNNCCCDRLCPNVTDDNPYSNENIDKH | not soluble
